Measured values taken from publication PMC5696030.

Columns and labels:
Assay in all cases: AUC
Gly189Ala NFU1 (human) = Gly189Ala NFU1 (human) (UniProt Q9UMS0)
Gly189Arg NFU1 (human) = Gly189Arg NFU1 (human) (UniProt Q9UMS0)
Gly189Lys NFU1 (human) = Gly189Lys NFU1 (human) (UniProt Q9UMS0)
[1] = target: native human NFU1 (human) (UniProt Q9UMS0)

Work on “Gly189Ala NFU1 (from UniProt Q9UMS0 10-254) (natural protein)” yielded a percent dimer (Gly189Ala NFU1 (human)) of 3%, a percent dimer with 1 mM TCEP (Gly189Ala NFU1 (human)) of 3% and a percent monomer (Gly189Ala NFU1 (human)) of 95%. The percent monomer with 1 mM TCEP (Gly189Ala NFU1 (human)) was 95% and the stoichiometry N (Gly189Ala NFU1 (human)) was 2.

Substance “Gly189Arg NFU1 (from UniProt Q9UMS0 10-254) (natural protein)” has a percent dimer (Gly189Arg NFU1 (human)) of 4%, a percent dimer with 1 mM TCEP (Gly189Arg NFU1 (human)) of 4% and a percent monomer (Gly189Arg NFU1 (human)) of 95%. For the same substance, the percent monomer with 1 mM TCEP (Gly189Arg NFU1 (human)) was 94% and the stoichiometry N (Gly189Arg NFU1 (human)) was 2.

“Gly189Lys NFU1 (from UniProt Q9UMS0 10-254) (natural protein)” gave a percent dimer (Gly189Lys NFU1 (human)) of 5%, a percent dimer with 1 mM TCEP (Gly189Lys NFU1 (human)) of 6% and a percent monomer with 1 mM TCEP (Gly189Lys NFU1 (human)) of 89%. For the same substance, the stoichiometry N (Gly189Lys NFU1 (human)) was 2.

With “native human NFU1 (from UniProt Q9UMS0 10-254) (natural protein)” the percent dimer [1] was 52%, the percent dimer with 1 mM TCEP [1] was 44% and the percent monomer [1] was 45%. The percent monomer with 1 mM TCEP [1] was 44%.
